Reference: US20240166755A1, “CHIMERIC ANTIGEN RECEPTORS TARGETING CANCER” (University of Southern California, priority 2016, published 2024)
Entries after “also recorded” stand apart in the source; their conditions may differ.

Legend:
[1] = tested on: MPL-expressing HEL.92.1.7 (HEL) cells; test: Jurkat-NFAT-EGFP reporter assay, co-culture with HEL cells (Table 25); type: cell-based, human; settings: FACS
Description: (§1) Cells were subsequently co-cultured with MPL-expressing HEL.92.1.7 (HEL) cells. […] CAR construct with HEL cells. The experiment was repeated by co-culturing the Jurkat-NFAT-EGFP cells with either RAJI cells, which have weak MPL expression, or with RAJI-MPL cells that were engineered to ectopically express human MPL receptor.

[2] = tested on: RAJI-MPL cells; test: Jurkat-NFAT-EGFP reporter assay, co-culture with RAJI-MPL or RAJI-vector cells (Table 25); type: cell-based, human; settings: RAJI-MPL cells compared with RAJI-vector cells
Description: as §1

[3] = tested on: HEL cells stably expressing GLuc; test: GLuc cell death assay, HEL-GLuc target cells; settings: for killing of HEL-GLuc cells: CAR-expressing PBMC, 4 h, versus uninfected PBMC; for GLuc activity (lysis of target cells): T cells, puromycin selected, E:T 10:1, 4 hours
Description: The blood samples to isolate Peripheral blood mononuclear cells (PBMCs) were obtained from healthy de-identified adult donors. PBMC were isolated from buffy coats by Ficoll-Hypaque gradient centrifugation and re-suspended in XVIVO medium (Lonza) supplanted with 10 ng/ml soluble anti-CD3, 10 ng/ml soluble anti-CD28 and 100 IU recombinant human-IL2. […] The PBMC expressing the indicated CARs and uninfected PBMC were co-cultured with HEL-GLuc target cells for 4 h and lysis of target cells measured by the single-step homogenous GLuc assay by injecting 0.5× CTZ assay buffer as described above.
Cells were selected with puromycin and expanded.
Cells were subsequently co-cultured overnight with HEL.92.1.7 cells that had been engineered to express GLuc.

[4] = tested on: Jurkat cells stably expressing MPL and GLuc; test: GLuc cell death assay, Jurkat-MPL-GLuc target cells; settings: T cells, puromycin selected, E:T 10:1, 4 hours
[5] = tested on: RAJI cells stably expressing GLuc; test: GLuc cell death assay, RAJI-GLuc target cells
Description: Cells were left unselected or selected with puromycin and expanded.

[6] = tested on: target cells expressing their respective target antigen; test: Jurkat-NFAT-GFP assay, co-culture with target cells expressing the respective target antigen (Table 28); settings: Jurkat-NFAT-GFP cells expressing the CAR; cell line(s) giving greater % GFP positive cells than parental

B1: CD8SP-175-(vL-vH)-Myc-CD28z-T2A-PAC(031615-Q04): CAR construct targeting MPL, 175 scFv, CD28 costimulatory domain (protein)
chain: MALPVTALLLPLALLLHAARPDQIVLTQSPAIMSASPGEKVTISCSASSSVSYMYWYQQKPGSSPKPWIYRTSNLASGVPARFSGSGSGTSYSLTISNMEAEDAAAYYCQQYHSYPTTFGGGTKLEVKGGGGSGGGGSGGGGSEVQLVESGGGLVQPKGSLKLSCAASGFSFNTYAMNWVRQAPGKGLEWIAHIRSKSNNFATYYADSVKDRFSISRDASENILFLQMNNLKTEDTAMYYCVRQGGDFPMDYWGQGTSVTVSSTREQKLISEEDLKIEVMYPPPYLDNEKSNGTIIHVKGKHLCPSPLFPGPSKPFWVLVVVGGVLACYSLLVTVAFIIFWVRSKRSRLLHSDYMNMTPRRPGPTRKHYQPYAPPRDFAAYRSRVKFSRSADAPAYQQGQNQLYNELNLGRREEYDVLDKRRGRDPEMGGKPRRKNPQEGLYNELQKDKMAEAYSEIGMKGERRRGKGHDGLYQGLSTATKDTYDALHMQALPPRSSGSGEGRGSLLTCGDVEENPGPHMTEYKPTVRLATRDDVPRAVRTLAAAFADYPATRHTVDPDRHIERVTELQELFLTRVGLDIGKVWVADDGAAVAVWTTPESVEAGAVFAEIGPRMAELSGSRLAAQQQMEGLLAPHRPKEPAWFLATVGVSPDHQGKGLGSAVVLPGVEAAERAGVPAFLETSAPRNLPFYERLGFTVTADVEVPEGPRTWCMTRKPGA
modifications: listed as DNA
notes: CAR construct targeting MPL, 175 scFv, CD28 costimulatory domain
EGFP expression (NFAT-EGFP reporter) [1]: strongest | EGFP expression (NFAT-EGFP reporter) [2]: strongest | killing of HEL-GLuc cells [3]: increased killing | GLuc activity (lysis of target cells) [3]: stronger | GLuc activity (lysis of target cells) [4]: stronger

B2: CD8SP-161-(vL-vH)-Myc-CD28z-T2A-PAC(021715-Z07): CAR targeting MPL: 161 scFv with CD28 hinge, transmembrane and cytosolic domains and CD3z (protein)
chain: MALPVTALLLPLALLLHAARPDDIQMTQSSSSFSVSLGDRVTITCMASEDIYIRLAWYQQKPGNAPRLLISAATSLETGVPSRFSGSGSGKDYTLSITSLQTEDVGTYYCQQYWSSPWTFGGGTKLEINGGGGSGGGGSGGGGSDVQLQESGPGLVKPSQSLSLTCTVTGYSITSDYTWNWIRQFPGNKLEWMGYITYSGSTSYNPSLKSRNSITRDTSKNQFFLQLNSVTTEDTATYYCARLGRRYTMDYWGQGTSVTVSSTREQKLISEEDLKIEVMYPPPYLDNEKSNGTIIHVKGKHLCPSPLFPGPSKPFWVLVVVGGVLACYSLLVTVAFIIFWVRSKRSRLLHSDYMNMTPRRPGPTRKHYQPYAPPRDFAAYRSRVKFSRSADAPAYQQGQNQLYNELNLGRREEYDVLDKRRGRDPEMGGKPRRKNPQEGLYNELQKDKMAEAYSEIGMKGERRRGKGHDGLYQGLSTATKDTYDALHMQALPPRSSGSGEGRGSLLTCGDVEENPGPHMTEYKPTVRLATRDDVPRAVRTLAAAFADYPATRHTVDPDRHIERVTELQELFLTRVGLDIGKVWVADDGAAVAVWTTPESVEAGAVFAEIGPRMAELSGSRLAAQQQMEGLLAPHRPKEPAWFLATVGVSPDHQGKGLGSAVVLPGVEAAERAGVPAFLETSAPRNLPFYERLGFTVTADVEVPEGPRTWCMTRKPGA
modifications: listed as DNA
notes: CAR targeting MPL: 161 scFv with CD28 hinge, transmembrane and cytosolic domains and CD3z
EGFP expression (NFAT-EGFP reporter) [1]: strongest | EGFP expression (NFAT-EGFP reporter) [2]: strongest | GLuc activity (lysis of target cells) [3]: stronger | GLuc activity (lysis of target cells) [4]: stronger

B3: CD8SP-CD19Bu12-(vL-vH)-Myc-BBz-T2A-PAC(082815-P08): CD19 CAR with scFv from humanized CD19 antibody huCD19-Bu12, 41BB and CD3z (protein)
chain: MALPVTALLLPLALLLHAARPDEIVLTQSPATLSLSPGERATLSCSASSSVSYMHWYQQKPGQAPRLLIYDTSKLASGIPARFSGSGSGTDFTLTISSLEPEDVAVYYCFQGSVYPFTFGQGTKLEIKRGGGGSGGGGSGGGGSQVQLQESGPGLVKPSQTLSLTCTVSGGSISTSGMGVGWIRQHPGKGLEWIGHIWWDDDKRYNPALKSRVTISVDTSKNQFSLKLSSVTAADTAVYYCARMELWSYYFDYWGQGTLVTVSSTREQKLISEEDLAKPTTTPAPRPPTPAPTIASQPLSLRPEACRPAAGGAVHTRGLDFACDIYIWAPLAGTCGVLLLSLVITLYCKRGRKKLLYIFKQPFMRPVQTTQEEDGCSCRFPEEEEGGCELRVKFSRSADAPAYQQGQNQLYNELNLGRREEYDVLDKRRGRDPEMGGKPRRKNPQEGLYNELQKDKMAEAYSEIGMKGERRRGKGHDGLYQGLSTATKDTYDALHMQALPPRSSGSGEGRGSLLTCGDVEENPGPHMTEYKPTVRLATRDDVPRAVRTLAAAFADYPATRHTVDPDRHIERVTELQELFLTRVGLDIGKVWVADDGAAVAVWTTPESVEAGAVFAEIGPRMAELSGSRLAAQQQMEGLLAPHRPKEPAWFLATVGVSPDHQGKGLGSAVVLPGVEAAERAGVPAFLETSAPRNLPFYERLGFTVTADVEVPEGPRTWCMTRKPGA
modifications: listed as DNA
cell death (increase in Gluc activity) ([5]; RAJI-pLenti-Gluc cells incubated with the CAR-T cells): significant induction of cell death | GLuc activity (lysis of target cells) ([5]; T cells with or without puromycin selection, E:T 10:1, 96 hours): increase in GLuc activity

B4: CD8SP-DLL3-hSC16-13-(vL-vH)-Myc-BBz-T2A-PAC(052516-D07)[SEQ ID NO: 1584] (protein)
chain: MALPVTALLLPLALLLHAARPDIQMTQSPSSLSASVGDRVTITCSASSSVSYMYWYQQKPGKAPKLLIYLTSNLASGVPSRFSGSGSGTDFTLTISSLQPEDFATYYCQQWRSNPFTFGQGTKLEIKRGGGGSGGGGSGGGGSQITLKESGPTLVKPTQTLTLTCTFSGFSLSTSGMGVGWIRQPPGKALEWLAHIWWDDVKRYSPSLKSRLTITKDTSKNQVVLTMTNMDPVDTATYYCARIVSFDNDVVSAMDYWGQGTLVTVSSTREQKLISEEDLAKPTTTPAPRPPTPAPTIASQPLSLRPEACRPAAGGAVHTRGLDFACDIYIWAPLAGTCGVLLLSLVITLYCKRGRKKLLYIFKQPFMRPVQTTQEEDGCSCRFPEEEEGGCELRVKFSRSADAPAYQQGQNQLYNELNLGRREEYDVLDKRRGRDPEMGGKPRRKNPQEGLYNELQKDKMAEAYSEIGMKGERRRGKGHDGLYQGLSTATKDTYDALHMQALPPRSSGSGEGRGSLLTCGDVEENPGPHMTEYKPTVRLATRDDVPRAVRTLAAAFADYPATRHTVDPDRHIERVTELQELFLTRVGLDIGKVWVADDGAAVAVWTTPESVEAGAVFAEIGPRMAELSGSRLAAQQQMEGLLAPHRPKEPAWFLATVGVSPDHQGKGLGSAVVLPGVEAAERAGVPAFLETSAPRNLPFYERLGFTVTADVEVPEGPRTWCMTRKPGA
modifications: listed as DNA
Positive Cell Line on co-culture assay [6]: LAN5, SKMEL31,; also recorded: SKMEL317

B5: CD8SP-MPL-161-(vL-vH)-Myc-BBz-T2A-PAC(021015-R07): CAR targeting MPL: 161 scFv, Myc tag, CD8 hinge/TM, 41BB, CD3z, T2A, puromycin resistance (protein)
chain: MALPVTALLLPLALLLHAARPDDIQMTQSSSSFSVSLGDRVTITCMASEDIYIRLAWYQQKPGNAPRLLISAATSLETGVPSRFSGSGSGKDYTLSITSLQTEDVGTYYCQQYWSSPWTFGGGTKLEINGGGGSGGGGSGGGGSDVQLQESGPGLVKPSQSLSLTCTVTGYSITSDYTWNWIRQFPGNKLEWMGYITYSGSTSYNPSLKSRNSITRDTSKNQFFLQLNSVTTEDTATYYCARLGRRYTMDYWGQGTSVTVSSTREQKLISEEDLAKPTTTPAPRPPTPAPTIASQPLSLRPEACRPAAGGAVHTRGLDFACDIYIWAPLAGTCGVLLLSLVITLYCKRGRKKLLYIFKQPFMRPVQTTQEEDGCSCRFPEEEEGGCELRVKFSRSADAPAYQQGQNQLYNELNLGRREEYDVLDKRRGRDPEMGGKPRRKNPQEGLYNELQKDKMAEAYSEIGMKGERRRGKGHDGLYQGLSTATKDTYDALHMQALPPRSSGSGEGRGSLLTCGDVEENPGPHMTEYKPTVRLATRDDVPRAVRTLAAAFADYPATRHTVDPDRHIERVTELQELFLTRVGLDIGKVWVADDGAAVAVWTTPESVEAGAVFAEIGPRMAELSGSRLAAQQQMEGLLAPHRPKEPAWFLATVGVSPDHQGKGLGSAVVLPGVEAAERAGVPAFLETSAPRNLPFYERLGFTVTADVEVPEGPRTWCMTRKPGA
modifications: listed as DNA
notes: CAR targeting MPL: 161 scFv, Myc tag, CD8 hinge/TM, 41BB, CD3z, T2A, puromycin resistance
EGFP expression (NFAT-EGFP reporter) [1]: strongest | EGFP expression (NFAT-EGFP reporter) [2]: strongest | killing of HEL-GLuc cells [3]: increased killing

B6: CD8SP-CD324-hSC10-17-(vL-vH)-Myc-BBz-T2A-PAC(052516-A07)[SEQ ID NO: 1555] (protein)
chain: MALPVTALLLPLALLLHAARPDVVMTQSPLSLPVTLGQPASISCRSSQSIVHSDGNTYLEWYQQRPGQSPRRLIYKVSNRFSGVPDRFSGSGSGTDFTLKISRVEAEDVGVYYCFQGSHAPWTFGGGTKVEIKGGGGSGGGGSGGGGSEVQLVESGGGLVQPGGSLRLSCAASGFTFSSYGMHWVRQAPGKGLEWVAYITTRSSTIYYADSVKGRFTISRDNAKNSLYLQMNSLRAEDTAVYYCTREPLTGYYAMDYWGQGTSVTVSSTREQKLISEEDLAKPTTTPAPRPPTPAPTIASQPLSLRPEACRPAAGGAVHTRGLDFACDIYIWAPLAGTCGVLLLSLVITLYCKRGRKKLLYIFKQPFMRPVQTTQEEDGCSCRFPEEEEGGCELRVKFSRSADAPAYQQGQNQLYNELNLGRREEYDVLDKRRGRDPEMGGKPRRKNPQEGLYNELQKDKMAEAYSEIGMKGERRRGKGHDGLYQGLSTATKDTYDALHMQALPPRSSGSGEGRGSLLTCGDVEENPGPHMTEYKPTVRLATRDDVPRAVRTLAAAFADYPATRHTVDPDRHIERVTELQELFLTRVGLDIGKVWVADDGAAVAVWTTPESVEAGAVFAEIGPRMAELSGSRLAAQQQMEGLLAPHRPKEPAWFLATVGVSPDHQGKGLGSAVVLPGVEAAERAGVPAFLETSAPRNLPFYERLGFTVTADVEVPEGPRTWCMTRKPGA
modifications: listed as DNA
Positive Cell Line on co-culture assay [6]: MDAMB-231
